Measured values reported in paper doi:10.1101/2020.12.29.424758 (bioRxiv, 2020).

Target: YiiP from S. oneidensis (wild-type) (S. oneidensis, UniProt Q8E919)
Assay: SEC

YiiP from S. oneidensis (wild-type), sequence (Q8E919 whole entry): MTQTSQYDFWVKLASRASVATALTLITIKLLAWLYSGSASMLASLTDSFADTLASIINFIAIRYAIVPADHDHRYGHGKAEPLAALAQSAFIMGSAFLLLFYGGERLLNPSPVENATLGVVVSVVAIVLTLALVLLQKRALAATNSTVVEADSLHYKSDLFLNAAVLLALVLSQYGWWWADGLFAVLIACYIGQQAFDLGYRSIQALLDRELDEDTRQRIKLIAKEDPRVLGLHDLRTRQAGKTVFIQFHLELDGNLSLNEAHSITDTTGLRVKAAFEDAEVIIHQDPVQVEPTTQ

- binding result: binds
B1: Fab2 (Fab, V domains shown)
VH: EVQLVESGGGLVQPGGSLRLSCAASGFTIYSSSIHWVRQAPGKGLEWVASIYSSSGSTYYADSVKGRFTISADTSKNTAYLQMNSLRAEDTAVYYCARQSYSGLSPRRHWSYGAMDYWGQGTLVTVSS
VL: DIQMTQSPSSLSASVGDRVTITCRASQSVSSAVAWYQQKPGKAPKLLIYSASSLYSGVPSRFSGSRSGTDFTLTISSLQPEDFATYYCQQIWSWPLITFGQGTKVEIK
